Experimental data from patent US20070148774A1.

Columns and labels:
[1] = target: bovine thyroglobulin (bovine) (UniProt P01267); experiment: phage ELISA, 200 ug/ml thyroglobulin coated
[2] = target: fd h-PDGFB-R phage (extracellular domain of the human receptor for PDGF isoform BB displayed on fd phage) (human; bacteriophage fd) (UniProt P09619); experiment: displacement of 125I-PDGF-BB from receptor phage, immunoprecipitation
fd h-PDGFB-R phage (extracellular domain of the human receptor for PDGF isoform BB displayed on fd phage) (human; bacteriophage fd), sequence (P09619 33-531, form in doubt): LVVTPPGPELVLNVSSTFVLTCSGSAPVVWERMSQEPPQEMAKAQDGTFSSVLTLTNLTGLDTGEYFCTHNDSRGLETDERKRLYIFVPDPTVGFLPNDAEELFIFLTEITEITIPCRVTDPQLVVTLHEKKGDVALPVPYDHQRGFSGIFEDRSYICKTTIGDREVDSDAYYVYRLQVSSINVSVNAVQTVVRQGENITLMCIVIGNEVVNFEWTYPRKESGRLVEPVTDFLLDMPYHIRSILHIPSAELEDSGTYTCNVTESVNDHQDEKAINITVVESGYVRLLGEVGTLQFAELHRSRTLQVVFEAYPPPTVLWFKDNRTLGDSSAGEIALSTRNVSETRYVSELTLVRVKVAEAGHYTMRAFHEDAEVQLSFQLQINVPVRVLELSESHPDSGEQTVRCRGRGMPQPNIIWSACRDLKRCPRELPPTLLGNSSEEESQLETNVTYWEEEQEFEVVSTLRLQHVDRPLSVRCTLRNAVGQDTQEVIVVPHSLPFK

bovine thyroglobulin (bovine), sequence (P01267 20-2769 limits assumed): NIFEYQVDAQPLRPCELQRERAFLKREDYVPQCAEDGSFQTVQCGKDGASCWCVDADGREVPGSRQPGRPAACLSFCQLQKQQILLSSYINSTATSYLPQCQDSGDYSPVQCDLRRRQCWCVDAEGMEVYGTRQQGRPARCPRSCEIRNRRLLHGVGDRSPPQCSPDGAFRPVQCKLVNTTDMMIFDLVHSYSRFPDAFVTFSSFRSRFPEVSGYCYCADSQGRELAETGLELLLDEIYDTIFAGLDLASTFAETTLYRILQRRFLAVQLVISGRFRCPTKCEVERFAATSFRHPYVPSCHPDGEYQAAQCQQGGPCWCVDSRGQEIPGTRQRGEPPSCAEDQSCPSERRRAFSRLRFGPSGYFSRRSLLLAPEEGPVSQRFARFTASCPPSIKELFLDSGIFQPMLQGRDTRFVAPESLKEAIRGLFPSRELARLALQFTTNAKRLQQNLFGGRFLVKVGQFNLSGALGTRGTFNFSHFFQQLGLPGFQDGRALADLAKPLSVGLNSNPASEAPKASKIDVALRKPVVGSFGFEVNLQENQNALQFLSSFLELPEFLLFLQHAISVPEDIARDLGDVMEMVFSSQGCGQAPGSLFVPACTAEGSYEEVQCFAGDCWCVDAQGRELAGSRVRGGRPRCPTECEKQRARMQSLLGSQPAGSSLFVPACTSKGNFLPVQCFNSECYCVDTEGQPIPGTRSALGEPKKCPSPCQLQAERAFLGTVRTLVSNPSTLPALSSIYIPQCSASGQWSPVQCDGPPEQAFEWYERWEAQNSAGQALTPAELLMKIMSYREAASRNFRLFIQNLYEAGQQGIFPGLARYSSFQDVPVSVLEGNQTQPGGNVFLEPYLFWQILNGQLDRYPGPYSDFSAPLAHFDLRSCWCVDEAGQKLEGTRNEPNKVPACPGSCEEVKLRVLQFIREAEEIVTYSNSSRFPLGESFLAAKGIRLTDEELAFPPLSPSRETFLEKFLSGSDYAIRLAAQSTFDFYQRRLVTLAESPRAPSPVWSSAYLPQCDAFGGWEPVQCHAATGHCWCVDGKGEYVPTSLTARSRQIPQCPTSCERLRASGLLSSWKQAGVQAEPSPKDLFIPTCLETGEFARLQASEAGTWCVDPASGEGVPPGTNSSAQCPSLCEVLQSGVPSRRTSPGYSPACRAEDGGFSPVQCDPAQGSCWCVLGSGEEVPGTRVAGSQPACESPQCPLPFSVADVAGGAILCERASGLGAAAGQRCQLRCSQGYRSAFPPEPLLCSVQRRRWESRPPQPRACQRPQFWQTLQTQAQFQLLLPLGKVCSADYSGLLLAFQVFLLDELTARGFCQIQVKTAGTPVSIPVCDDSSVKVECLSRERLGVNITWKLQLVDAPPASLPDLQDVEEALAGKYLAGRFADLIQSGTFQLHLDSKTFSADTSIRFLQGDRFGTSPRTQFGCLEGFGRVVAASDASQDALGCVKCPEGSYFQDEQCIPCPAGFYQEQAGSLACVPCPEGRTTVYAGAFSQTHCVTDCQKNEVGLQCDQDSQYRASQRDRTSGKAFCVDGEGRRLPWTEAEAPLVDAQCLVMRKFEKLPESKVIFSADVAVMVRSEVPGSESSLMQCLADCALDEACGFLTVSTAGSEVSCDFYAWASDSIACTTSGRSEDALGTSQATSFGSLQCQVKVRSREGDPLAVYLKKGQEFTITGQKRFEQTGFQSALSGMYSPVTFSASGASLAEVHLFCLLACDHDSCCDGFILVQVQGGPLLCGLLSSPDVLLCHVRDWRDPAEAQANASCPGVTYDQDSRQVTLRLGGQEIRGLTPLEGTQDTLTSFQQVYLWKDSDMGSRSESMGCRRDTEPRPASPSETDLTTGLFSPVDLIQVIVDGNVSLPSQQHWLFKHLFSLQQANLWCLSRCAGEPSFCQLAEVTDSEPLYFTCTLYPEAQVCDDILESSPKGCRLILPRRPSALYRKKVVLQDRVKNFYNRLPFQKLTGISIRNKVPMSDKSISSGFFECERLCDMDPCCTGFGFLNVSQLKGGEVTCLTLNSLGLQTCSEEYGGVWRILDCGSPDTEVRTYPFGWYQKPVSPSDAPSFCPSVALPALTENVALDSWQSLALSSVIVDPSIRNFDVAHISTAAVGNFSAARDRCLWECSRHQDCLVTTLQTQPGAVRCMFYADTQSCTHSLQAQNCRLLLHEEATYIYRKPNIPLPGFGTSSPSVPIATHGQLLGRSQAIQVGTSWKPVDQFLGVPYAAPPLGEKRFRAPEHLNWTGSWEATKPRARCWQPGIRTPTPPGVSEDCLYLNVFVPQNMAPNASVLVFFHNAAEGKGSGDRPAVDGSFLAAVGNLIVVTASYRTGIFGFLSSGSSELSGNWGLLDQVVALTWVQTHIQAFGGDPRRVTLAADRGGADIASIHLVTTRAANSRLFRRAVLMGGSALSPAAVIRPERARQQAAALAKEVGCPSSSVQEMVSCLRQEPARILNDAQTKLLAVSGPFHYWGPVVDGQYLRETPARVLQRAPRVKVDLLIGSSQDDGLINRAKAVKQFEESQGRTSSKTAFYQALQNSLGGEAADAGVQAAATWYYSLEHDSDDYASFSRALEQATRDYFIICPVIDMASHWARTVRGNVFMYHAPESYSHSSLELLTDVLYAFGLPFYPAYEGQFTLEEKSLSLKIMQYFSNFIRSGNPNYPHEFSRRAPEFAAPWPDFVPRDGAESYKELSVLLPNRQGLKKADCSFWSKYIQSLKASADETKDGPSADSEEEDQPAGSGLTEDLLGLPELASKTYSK

| Substance | O.D. in ELISA [1] | concentration at which binding of 125I-PDGF-BB was reduced to the control level [2] |
| --- | --- | --- |
| pCAT-3 non-recombinant vector phagemid particles (from UniProt P03661 19-424) | 0.07 O.D. | – |
| unlabelled PDGF-BB (from UniProt P01127 82-190; P01127 82-190) (ligand) | – | 50 nM |
